Experimental data taken from paper PMC12578283 (Protein & Cell, 2025).

B1: 1G9 (antibody, V domains shown)
VH: QVQLQQPGPELVRPGASVKLSCKASGYTFTTYWMKWVRQRPGQGLEWIGTIDPSDNEIHYNQIFKDKATLTVDKSSSTAYMHLSSLTSEDAAVYYCARWDGTSYYAMDYWGQGTSVTVSS
VL: DVVMSQTPLSLPVSLGDQASISCRSSQSLVHSNGNTYLHWYLQKPGQSPKLLIYKVSNRFSGVPDRFSGSGSGTDFTLKISRVEAEDLGVYFCSQSTHVPPTFGGGTKLEIK
B2: 4C7 (antibody, V domains shown)
VH: QVQLHQPGSVLVRPGTSVKLSCKASGYTFTSSWMNWAKQRPGQGLEWIGEIHPRSGNTNYNENFKGKATLTVDTSSSTAYVDLSSLASEDSAVYYCARSGGTYYYAMDSWGQGTSVTVSS
VL: DIQMTQTTSSLSASLGDRVTISCRASQDISNYLNWYQQKPDGTVKLLIYYTSRLHSGVPSRFSGSGSGTDFSLTISTLEQEDFATYFCQQANTSPYTFGGGTKLEIN

Target: p15 protein of African swine fever virus (African swine fever virus, UniProt Q65179)

| Binder | binding result |
| --- | --- |
| B1 | binds |
| B2 | binds |
